From patent publication US20220341931A1

Biological target: Influenza A [A/Hawaii/70/2019 (H1N1)pdm09-like virus] Hemagglutinin (HA), His-Tag (Native Antigen Co (Influenza A [A/Hawaii/70/2019 (H1N1)pdm09-like virus]))

Substance “SARS-CoV-2 (2019-nCoV) Nucleocapsid Antibody, Rabbit MAb (Sino Biological Cat: 40143-R019)” has a barcode sequence counts (FLU A) of 2000 counts.
